Source: patent US20140154255A1 (AbbVie / Abbott, published 2014)
Positions count from the first letter of the chain named. In names and notes the source's numbering stands.

What was measured:
[1] = biological target: T1, human VEGF-A residues 27-191 of Accession #AAV38412 (human, UniProt P15692 27-191); test: BIAcore SPR [continued]
T1 construct: range 27-191
Method: (§1) The binding kinetics and affinity of the antibodies for VEGF (human VEGF-A residues 27-191 of Accession #AAV38412) was determined by using a BIAcore T200 surface plasmon resonance system (BIAcore, GE Healthcare, Piscataway, N.J.). Coupling running buffer was HBS-EP+ running buffer (10 mM HEPES, 150 mM sodium chloride, 3 mM EDTA 0.05% P-20, pH 7.4); assay running buffer was HBS-EP+ with 300 mM sodium chloride and 0.1 mg/mL BSA (Sigma A7906). Polyclonal goat anti-human Fc (Thermo Scientific prod#31125) was first immobilized to the biosensor surface in 10 mM sodium acetate, pH 4.5 using standard BIAcore amine coupling reagents (N-ethyl-N′-dimethylamino-propylcarbodiimide, EDC; N-hydroxysuccinimide, NHS; and ethanolamine HCl, pH 8.5). For binding kinetics assay a series of cycles were performed, each cycle consisted of 1) mAb capture, 2) Ag or buffer injection, 3) dissociation phase and 4) regeneration. Briefly, anti-VEGF antibodies were captured on parallel surfaces at a low flow rate of 10 μL/min. Capture levels were kept low to minimize avidity due to the dimeric nature of VEGF. No capture of the antibody was made on the reference surface to serve for primary referencing and as a negative control. Subsequently, VEGF or buffer only was injected to all flow cells at a flow rate of 80 μL/min for three minutes to monitor association followed by a 20-minute flow of assay rinning buffer at a flow rate of 80 μL/min to monitor dissociation. […] At the end of each cycle the surface was regenerated with 10 mM glycine, pH 1.5 at a flow rate of 60 μL/min in pulses of 60 and 10 sec. Binding data were fit to the 1:1 Langmuir model with mass transport term included using Biacore T200 Evaluation Software to determine the binding constants.

[2] = biological target: T1, human VEGF-A residues 27-191 of …; test: BIAcore SPR, KD WT/KD mutant [continued]
Method: as §1

[3] = biological target: Alexa647-conjugated rHuVEGF (Invitrogen Cat #PHG0143) (human, UniProt P15692-4 27-191, limits assumed, Alexa647-conjugated); test: flow cytometry, surface-bound antibody on 293c18 cells, 3 nM Alexa647-rHuVEGF; design: reference not given here
Sequence of Alexa647-conjugated rHuVEGF (Invitrogen Cat #PHG0143) (P15692 other isoform, or with tags, fused parts or gaps limits assumed): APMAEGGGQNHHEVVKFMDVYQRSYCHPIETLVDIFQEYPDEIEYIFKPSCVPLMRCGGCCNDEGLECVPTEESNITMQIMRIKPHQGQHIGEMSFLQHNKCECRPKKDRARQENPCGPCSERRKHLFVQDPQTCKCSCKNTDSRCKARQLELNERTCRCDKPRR
Method: Data were gathered by way of flow cytometry using a DakoCytomation CyAn ADP flow cytometer and was analyzed using Treestar's FloJo analysis program.

[4] = biological target: T1, human VEGF-A residues 27-191 of …; test: BIAcore SPR; kd of this row is at the detection limit
Method: (§2) The binding kinetics and affinity of the antibodies for VEGF (human VEGF-A residues 27-191 of Accession #AAV38412) was determined by using a BIAcore T200 surface plasmon resonance system (BIAcore, GE Healthcare, Piscataway, N.J.). Coupling running buffer was HBS-EP+ running buffer (10 mM HEPES, 150 mM sodium chloride, 3 mM EDTA 0.05% P-20, pH 7.4); assay running buffer was HBS-EP+ with 300 mM sodium chloride and 0.1 mg/mL BSA (Sigma A7906). Polyclonal goat anti-human Fc (Thermo Scientific prod#31125) was first immobilized to the biosensor surface in 10 mM sodium acetate, pH 4.5 using standard BIAcore amine coupling reagents (N-ethyl-N′-dimethylamino-propylcarbodiimide, EDC; N-hydroxysuccinimide, NHS; and ethanolamine HCl, pH 8.5). For binding kinetics assay a series of cycles were performed, each cycle consisted of 1) mAb capture, 2) Ag or buffer injection, 3) dissociation phase and 4) regeneration. Briefly, anti-VEGF antibodies were captured on parallel surfaces at a low flow rate of 10 μL/min. Capture levels were kept low to minimize avidity due to the dimeric nature of VEGF. No capture of the antibody was made on the reference surface to serve for primary referencing and as a negative control. […]

[5] = biological target: T1, human VEGF-A residues 27-191 of …; test: BIAcore SPR
[6] = biological target: T1, human VEGF-A residues 27-191 of …; test: BIAcore SPR, KD WT/KD mutant
[7] = biological target: T2, unlabeled human VEGF (ELISA coat) (human, UniProt P15692-4 27-191, limits assumed); test: ELISA on coated human VEGF, overnight assay, against bevacizumab (WT)
T2 sequence (P15692 other isoform, or with tags, fused parts or gaps limits assumed): as above
Method: (§3) Corresponding variants in DVD-Ig format were analyzed for binding kinetics by BIAcore only.
(§4) To detect identified variants binding to antigen, ELISA plates (Nunc-Immuno MaxiSorp plates, Nalge Nunc, Rochester, N.Y.) were coated overnight at 4° C. with unlabeled human VEGF at 1 μg/mL in 0.2 M sodium carbonate-bicarbonate buffer (pH 9.4, Pierce, Rockford, Ill.). The plates were then blocked with SuperBlock Blocking Buffer (Pierce, Rockford, Ill.) for 30 min and washed with Washing Buffer (PBS containing 0.1% Tween 20). All the washing steps were performed for three times. […] The plates were washed and 100 μL of goat anti-human kappa HRP-conjugated antibody (Southern Biotech, Birmingham, Ala.) diluted at 1:1000 in ELISA buffer was added to each well. After 30 minutes of incubation, plates were washed and bound antibodies were detected by addition of TMB 1 Component HRP Microwell substrate (BioFx #TMBW-1000-01). The reaction was terminated by addition of 100 μL/well of 650 nM Stop Reagent for TMB Microwell substrate and the absorbance was measured at 650 nm using a VERSAmax microplate reader (Molecular Devices, Sunnyvale, Calif.). Data were fitted using nonlinear regression with the software […]

[8] = biological target: T1, human VEGF-A residues 27-191 of …; test: BIAcore SPR; * detection limit
Method: as §2

[9] = biological target: T2, unlabeled human VEGF (ELISA coat); test: ELISA on coated human VEGF, 1 hr incubation, against bevacizumab (WT)
Method: as §3, §4

[10] = biological target: T2, unlabeled human VEGF (ELISA coat); test: ELISA 1 hr, EC50 WT/EC50 mutant
[11] = biological target: T2, unlabeled human VEGF (ELISA coat); test: ELISA overnight, EC50 WT/EC50 mutant
[12] = biological target: T3, VEGF (R&D systems, Minneapolis, Minn.) (UniProt P15692-4 27-191, limits assumed); test: BIAcore SPR
T3 sequence (P15692 other isoform, or with tags, fused parts or gaps limits assumed): as above
Method: (§5) RL was kept low to minimize avidity due to the dimeric nature of VEGF. No capture of the antibody was made on the reference surface to serve as a negative control. Subsequently, VEGF was injected to all flow cells at a flow rate of 50 μL/min for two minutes to monitor association followed by a 25-minute flow of HBS-P running buffer (10 mM HEPES, 150 mM sodium chloride, 0.005% P-20, pH 7.4) to monitor the dissociation phase. At each cycle, VEGF, in 6 different concentrations of VEGF ranging between 0 nM and 512 nM and at four-fold increments, was injected over the surface. […] Binding data were fit to the 1:1 Langmuir model to extract binding constants from the BIAevaluate software. Double referencing was applied in each analysis to eliminate background responses from the reference surface and buffer only control. All the binding kinetics data were analyzed at least three separate determinations.

[13] = biological target: T3, VEGF (R&D systems, Minneapolis, Minn.); test: SPR (BIAcore 2000/3000), antibody captured by anti-human Fc, VEGF as analyte, 1:1 Langmuir fit; variant corresponding to SEQ ID NO:82, the best of the variants
Method: as §5

[14] = biological target: T3, VEGF (R&D systems, Minneapolis, Minn.); test: BIAcore SPR, mutant/WT
Method: as §5

[15] = biological target: T3, VEGF (R&D systems, Minneapolis, Minn.); test: BIAcore SPR, improvement over WT
Method: as §5

[16] = biological target: T3, VEGF (R&D systems, Minneapolis, Minn.); test: BIAcore SPR, WT/mutant
Method: as §5

T1 sequence (P15692 other isoform, or with tags, fused parts or gaps limits assumed): as above

B1: H97 A (SS DLL4-VEGF DVD-Ig) (bispecific antibody)
VH: EVQLVESGGGLVQPGGSLRLSCAASGFTFSNFPMAWVRQAPGKGLEWVATISSSDGTTYYRDSVKGRFTISRDNAKNSLYLQMNSLRAEDTAVYYCARGYYNSPFAYWGQGTLVTVSSASTKGPEVQLVESGGGLVQPGGSLRLSCAASGYTFTNYGMNWVRQAPGKGLEWVGWINTYTGEPTYAADFKRRFTFSLDTSKSTAYLQMNSLRAEDTAVYYCAKYPAYYGSSHWYFDVWGQGTLVTVSS
VL: DIQMTQSPSSLSASVGDRVTITCRASEDIYSNLAWYQQKPGKAPKLLIYDTNNLADGVPSRFSGSGSGTDFTLTISSLQPEDFATYYCQQYNNYPPTFGQGTKLEIKRTVAAPDIQMTQSPSSLSASVGDRVTITCSASQDISNYLNWYQQKPGKAPKVLIYFTSSLHSGVPSRFSGSGSGTDFTLTISSLQPEDFATYYCQQYSTVPWTFGQGTKVEIK
notes: also called SS DLL4-VEGF DVD-Ig variant H97A
Kd [1]: 5.03 nM
koff [1]: 0.000269 s⁻¹
kon [1]: 53600 M⁻¹ s⁻¹
affinity improvement [2]: 1 fold

B2: S100a T (SS DLL4-VEGF DVD-Ig) (bispecific antibody)
VH: B1 VH with A225H, S229T
VL: B1 VL
notes: also called SS DLL4-VEGF DVD-Ig variant S100aT
Kd [1]: 7.6 nM
koff [1]: 7.33e-05 s⁻¹
kon [1]: 9630 M⁻¹ s⁻¹
affinity improvement [2]: 1.2 fold

B3: H97 F (SS DLL4-VEGF DVD-Ig) (bispecific antibody)
VH: B1 VH with A225F
VL: B1 VL
notes: also called SS DLL4-VEGF DVD-Ig variant H97F
Kd [1]: 11 nM
koff [1]: 8.15e-05 s⁻¹
kon [1]: 7210 M⁻¹ s⁻¹
affinity improvement [2]: 0.8 fold

B4: T30 W (SS DLL4-VEGF DVD-Ig) (bispecific antibody)
VH: B1 VH with T154W, A225H
VL: B1 VL
notes: also called SS DLL4-VEGF DVD-Ig variant T30W
Kd [1]: 16 nM
koff [1]: 0.000143 s⁻¹
kon [1]: 9120 M⁻¹ s⁻¹
affinity improvement [2]: 0.8 fold

B5: S100a A (SS DLL4-VEGF DVD-Ig) (bispecific antibody)
VH: B1 VH with A225H, S229A
VL: B1 VL
notes: also called SS DLL4-VEGF DVD-Ig variant S100aA
Kd [1]: 11 nM
koff [1]: 0.000124 s⁻¹
kon [1]: 11700 M⁻¹ s⁻¹
affinity improvement [2]: 0.8 fold

B6: N31 W (SS DLL4-VEGF DVD-Ig) (bispecific antibody)
VH: B1 VH with N155W, A225H
VL: B1 VL
notes: also called SS DLL4-VEGF DVD-Ig variant N31W
Kd [1]: 13 nM
koff [1]: 6.92e-05 s⁻¹
kon [1]: 5500 M⁻¹ s⁻¹
affinity improvement [2]: 0.9 fold

B7: VL T51A (antibody, V domains shown)
VH: EVQLVESGGGLVQPGGSLRLSCAASGYTFTNYGMNWVRQAPGKGLEWVGWINTYTGEPTYAADFKRRFTFSLDTSKSTAYLQMNSLRAEDTAVYYCAKYPHYYGSSHWYFDVWGQGTLVTVSS
VL: DIQMTQSPSSLSASVGDRVTITCSASQDISNYLNWYQQKPGKAPKVLIYFASSLHSGVPSRFSGSGSGTDFTLTISSLQPEDFATYYCQQYSTVPWTFGQGTKVEIKR
MFI [3]: 296

B8: VH K64Q (antibody, V domains shown)
VH: B7 VH with K65Q
VL: DIQMTQSPSSLSASVGDRVTITCSASQDISNYLNWYQQKPGKAPKVLIYFTSSLHSGVPSRFSGSGSGTDFTLTISSLQPEDFATYYCQQYSTVPWTFGQGTKVEIK
notes: copies: 2 + 2
MFI [3]: 230

B9: VH Y53F.K64Q (antibody, V domains shown)
VH: B7 VH with Y54F, K65Q
VL: B8 VL
notes: copies: 2 + 2
MFI [3]: 217

B10: bevacizumab variant H97Y (IgG format) (antibody, name in Kabat numbering, V domains shown)
VH: B7 VH with H101Y
VL: B7 VL with A51T
notes: IgG format; also called H97Y substitution
Kd [4]: ≤ 0.243 nM
kon [5]: 41200 M⁻¹ s⁻¹
affinity improvement [6]: 1.8 fold
fold over WT (EC50 wild type/EC50 mutant), overnight assay [7]: 9.3 fold
koff [8]: ≤ 1e-05 s⁻¹
fold over WT (EC50 wild type/EC50 mutant), 1-hour assay [9]: 2.6 fold

B11: VH H97E.Y98F (antibody, V domains shown)
VH: B7 VH with H101E, Y102F
VL: B8 VL
notes: copies: 2 + 2
MFI [3]: 310

B12: H97 F (anti-VEGF IgG) (antibody, V domains shown)
VH: B7 VH with H101F
VL: B8 VL
notes: copies: 2 + 2
ELISA 1hr binding [10]: 2 fold
Kd [4]: ≤ 0.17 nM
kon [5]: 59000 M⁻¹ s⁻¹
ELISA o/n binding [11]: 2.3 fold
affinity improvement [6]: 2.5 fold
koff [8]: ≤ 1e-05 s⁻¹

B13: bevacizumab variant corresponding to SEQ ID NO:82 (antibody, V domains shown)
VH: B7 VH with N31F, H101D, Y103D, S105G
VL: B7 VL with A51T
Kd [12]: 0.0827 nM
koff [12]: 0.000172 s⁻¹
kon [12]: 2.08e+06 M⁻¹ s⁻¹
Kd [13]: 0.08 nM
Δkon [14]: 11.6 fold
ΔKD [15]: 23.8 fold
Δkoff [16]: 2 fold

B14: VH K64S (antibody, V domains shown)
VH: B7 VH with K65S
VL: B8 VL
notes: copies: 2 + 2
MFI [3]: 168
